Positions count from the first letter of the chain named.
B1: anti-PLA2 mAb 1.18 (antibody, IgG2, V domains shown)
VH: EVQLVQSGAEVKKPGESLKISCKGSGYSFTNYWINWVRQMPGKGLEWMGIIYPGDSDTRYSPSFQGQVTISADKSISTAYLQWSSLKASDTAMYYCARHRLGFDYWGQGTLVTVSS
VL: DIQMTQSPSSLSASVGDRVTITCRASQGIRNDLDWCQQKPGKAPKRLIYAASSLQSGVPSRFSGSGSGTEFTLTISSLQPEDFATYYCLQHNNYPPTFGQGTKVEIKR
B2: anti-PLA2 mAb 1.21 (antibody, IgG2, V domains shown)
VH: B1 VH with S28R, N31S, N35S, L101E, G102A, Y105I, L111M
VL: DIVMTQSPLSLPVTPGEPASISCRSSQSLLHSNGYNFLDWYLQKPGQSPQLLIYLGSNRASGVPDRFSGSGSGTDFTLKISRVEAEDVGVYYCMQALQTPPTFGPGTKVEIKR
B3: anti-PLA2 mAb 1.27 (antibody, IgG2, V domains shown)
VH: EVQLVQSGAEVKKPGESLKISCKGSGYSFTSYWIGWVRQMPGKGLEWMGIIYPGDSDTRYSPSFQGQVTISADKSISTAYLQWSSLKASDTAMYYCARSWTYGMDVWGQGTTVTVSS
VL: EIVLTQSPGTLSLSPGERATLSCRASQSVRSNYLTWYQQKPGQAPRLLIYGASTRATGIPDRFSGSGSGTDFTLTISRLEPEDFAVYYCQQYGSSPLTFGGGTKVEIKR
B4: anti-PLA2 mAb 1.14 (antibody, IgG2, V domains shown)
VH: B3 VH with F29I, S99H, W100S, T101G, Y102S, G103S, M104F, V106Y, T112L
VL: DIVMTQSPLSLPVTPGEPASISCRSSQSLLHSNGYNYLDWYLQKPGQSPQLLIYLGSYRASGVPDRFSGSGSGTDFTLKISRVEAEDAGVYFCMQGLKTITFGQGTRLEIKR
B5: anti-PLA2 mAb 1.5 (antibody, IgG2, V domains shown)
VH: B3 VH with T30I, S99H, T101S
VL: B3 VL with N32G, T35A, K40R, L47F, T54S
notes: also called 1.5.1
B6: anti-PLA2 mAb 1.7 (antibody, IgG2, V domains shown)
VH: B3 VH with T30I, G103A, M104L, T112A
VL: B3 VL with A25P, I76V
notes: also called 1.7.1
B7: anti-PLA2 mAb 2.7 (antibody, IgG4, V domains shown)
VH: GVQLVQSGAEVKKPGESLKISCKGSGYSFTNYWIGWVRQMPGKGLEWMGIIYPGDSDTRYSPSFQGQVTISADKSISTAYLQWSSLKASDTAIYYCARGGVGAFDIWGQGTMVTVSS
VL: EIVLTQSPGTLSLSPGERATLSCRASQIIRRSSLAWYQEKPGQAPRLLIYGASSRATGIPDRFSGSGSGTDFTLTISRLEPEDFAVYYCQQYGSSPPFTFGPGTKVDIKR
notes: also called 2.7.1
B8: anti-PLA2 mAb 2.15 (antibody, IgG4, V domains shown)
VH: QVQLVESGGGVVQPGRSLRLSCAASGFTFSSYGMHWVRQAPGKGLEWVAVIWYDGSNKYYADSVKGRFTISRDNSKNTLYLQMNSLRAEDTAVYYCARRDWNYAFDIWGQGTMVTVSS
VL: DIQMTQSPSSLSASVGDRVTITCRASQSISNYLNWYQQKPGKAPKFLIYAASSLQSGAPSRFSGSGSGTDFTLTISSLQPEDFATYYCQQSYSTPITFGQGTRLEIKR
B9: anti-PLA2 mAb 2.23 (antibody, IgG4, V domains shown)
VH: QVQLEESGGGVVQPGRSLRLSCAASGFTFSSYGMHWVRQGPGKGLEWVAVIWYDGSNKKYADSVKGRFTISRDNSKNTLYLQMNSLRAEDTAVYYCARDGPIFGVVMGYWGQGTLVTVSS
VL: B8 VL with A25T, Y36F, K45I, F46L, A58V, Q89H, T94I
B10: anti-PLA2 mAb 2.19 (antibody, IgG4, V domains shown)
VH: QVQLVESGGGVVQPGRSLRLSCAASGFTFSSYGMHWVRQAPGKGLEWVAAIWYDGSNKWYADSVKGRFTISRDNSKNTLYLQMNSLRAEDTAVYYCARGGTGTPGAFDIWGQGTMVTVSS
VL: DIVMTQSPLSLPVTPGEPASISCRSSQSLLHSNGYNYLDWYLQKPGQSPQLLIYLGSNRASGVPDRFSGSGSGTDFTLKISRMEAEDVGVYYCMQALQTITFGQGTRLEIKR
notes: also called 2.19.1

What was measured:
phospholipase A2 (PLA2) [1] = molecular target: T1, phospholipase A2 (PLA2) (Homo sapiens (Human), UniProt O15496 43-165); assay: cell-based or functional assay
T1 sequence: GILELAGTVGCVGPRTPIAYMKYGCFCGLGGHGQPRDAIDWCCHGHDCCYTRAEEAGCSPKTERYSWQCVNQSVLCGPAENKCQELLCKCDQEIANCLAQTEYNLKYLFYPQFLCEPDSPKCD

phospholipase A2 (PLA2) [2] = molecular target: T1, phospholipase A2 (PLA2); assay: Biacore 2000, Ab captured from supernatant, 300 nM PLA2
Description: (§1) In the immobilization, HBS-P was used as the running buffer; in the binding studies, HBS-P, with 12 mg/mL of each BSA and dextran, was used as sample and running buffers.
Briefly, antibody supernatants were diluted 1/10 and antibodies were captured individually on the IgG surfaces. After a one-minute wash step, buffer and PLA2 (300 nM) were injected serially (one-minute association, five minute dissociation) over each surface. Capture levels were measured from −20 to 0 seconds and the surfaces were regenerated with a 6-second pulse of 100 mM H₃PO₄.

phospholipase A2 (PLA2) [3] = molecular target: T1, phospholipase A2 (PLA2); assay: Biacore 2000, captured Ab, global 1:1 fit
Description: as §1
Data were normalized based on the individual antibody capture levels and fit globally to a 1:1 interaction model.

Row | Binder | IC50 of inhibition of PLA2 enzyme activity (12-point dose curve) (phospholipase A2 (PLA2) [1]) | Response (phospholipase A2 (PLA2) [2]) | Kd (phospholipase A2 (PLA2) [3]) | koff (phospholipase A2 (PLA2) [3]) | kon (phospholipase A2 (PLA2) [3])
1 | B1 | 0.78 nM | 6 RU | 50 nM | 0.00192 s⁻¹ | 38600 M⁻¹ s⁻¹
2 | B2 | 3.64 nM | 61 RU | 11 nM | 0.00063 s⁻¹ | 57100 M⁻¹ s⁻¹
3 | B3 | 9.4 nM | 78 RU | 27 nM | 0.000922 s⁻¹ | 34500 M⁻¹ s⁻¹
4 | B4 | 3.9 nM | 74 RU | 18 nM | 0.000791 s⁻¹ | 43900 M⁻¹ s⁻¹
5 | B5 | 2.36 nM | 70 RU | 15 nM | 0.000713 s⁻¹ | 48700 M⁻¹ s⁻¹
6 | B6 | 4.73 nM | 118 RU | 9.5 nM | 0.000451 s⁻¹ | 47400 M⁻¹ s⁻¹
7 | B7 | – | 126 RU | 10 nM | 0.00104 s⁻¹ | 99600 M⁻¹ s⁻¹
8 | B8 | 14.3 nM | 37 RU | 100 nM | 0.000902 s⁻¹ | 8880 M⁻¹ s⁻¹
9 | B9 | 14.4 nM | 7 RU | 120 nM | 0.000969 s⁻¹ | 8270 M⁻¹ s⁻¹
10 | B10 | – | 52 RU | 6.2 nM | 0.000115 s⁻¹ | 18600 M⁻¹ s⁻¹
